Experimental findings from patent publication US7993849B2 are described below.

The target of one assay is human MMP-1 (human) (UniProt P03956).
The next assay deals with rat MMP-13 (rat) (UniProt P23097).

rat TIMP-1, sequence (P30120 24-217 limits assumed): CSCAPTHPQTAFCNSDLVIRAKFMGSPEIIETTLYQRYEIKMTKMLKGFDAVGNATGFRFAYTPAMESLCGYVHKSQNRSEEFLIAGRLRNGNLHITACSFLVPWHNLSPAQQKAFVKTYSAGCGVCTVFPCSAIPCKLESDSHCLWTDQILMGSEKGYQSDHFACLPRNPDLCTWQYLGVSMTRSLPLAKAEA

Turning to human TIMP-1, in the assay with human MMP-1 (human), the MMP-1 activity on fluorogenic peptide substrate (% MMP-1 activity) came out at 27.

The substance rat TIMP-1 registered an MMP-13 activity on fluorogenic peptide substrate (% MMP-13 activity) with rat MMP-13 (rat) of 20.
